This is an account of results in US20210032351A1 (XDCEXPLORER SHANGHAI, published 2021).

Ends that are not written are not given here. * marks the point of attachment. Biotin = O=C1N[C@H]2[C@H](CS[C@H]2CCCCC(=O)*)N1

The target of one assay is T1, pep25 (cysteine pairing not given here).
T1 peptide: YEMEEDGVRKCKKCEGK(Biotin)
Put plainly: polypeptide dot matrix ELISA. For orientation: An ELISA detects its analyte on a solid surface through an enzyme-linked reagent.

In another assay the target is T2, pep26 (cysteine pairing not given here).
T2 peptide: EMEEDGVRKCKKCEGPK(Biotin)
Put plainly: polypeptide dot matrix ELISA.

Another assay deals with T3, pep27 (cysteine pairing not given here).
T3 peptide: MEEDGVRKCKKCEGPCK(Biotin)
The assay can be described thus: polypeptide dot matrix ELISA.

For another assay, the target named is T4, pep28 (cysteine pairing not given here).
T4 peptide: EEDGVRKCKKCEGPCRK(Biotin)
The assay can be described thus: polypeptide dot matrix ELISA.

The target in another assay is T5, pep33 (cysteine pairing not given here).
T5 peptide: RKCKKCEGPCRKVCNGK(Biotin)
Put plainly: polypeptide dot matrix ELISA.

The target in the next assay is T6, pep34 (cysteine pairing not given here).
T6 peptide: KCKKCEGPCRKVCNGIK(Biotin)
Put plainly: polypeptide dot matrix ELISA.

In a further assay the target is T7, pep35 (cysteine pairing not given here).
T7 peptide: CKKCEGPCRKVCNGIGK(Biotin)
Put plainly: polypeptide dot matrix ELISA.

Another assay concerns the target T8, pep01.
T8 peptide: LEEKKGNYVVTDHGSCK(Biotin)
The assay can be described thus: polypeptide dot matrix ELISA.

A further assay has as its target T9, pep02.
T9 peptide: EEKKGNYVVTDHGSCVK(Biotin)
The assay can be described thus: polypeptide dot matrix ELISA.

The target of the next assay is T10, pep05 (cysteine pairing not given here).
T10 peptide: KGNYVVTDHGSCVRACK(Biotin)
Put plainly: polypeptide dot matrix ELISA.

Another assay deals with T11, pep08 (cysteine pairing not given here).
T11 peptide: YVVTDHGSCVRACGADK(Biotin)
Put plainly: polypeptide dot matrix ELISA.

The next assay addresses T12, pep09 (cysteine pairing not given here).
T12 peptide: VVTDHGSCVRACGADSK(Biotin)
The assay can be described thus: polypeptide dot matrix ELISA.

Another assay deals with T13, pep10 (cysteine pairing not given here).
T13 peptide: VTDHGSCVRACGADSYK(Biotin)
The assay can be described thus: polypeptide dot matrix ELISA.

The target in a further assay is T14, pep13 (cysteine pairing not given here).
T14 peptide: HGSCVRACGADSYEMEK(Biotin)
Put plainly: polypeptide dot matrix ELISA.

The target of the next assay is T15, pep15 (cysteine pairing not given here).
T15 peptide: SCVRACGADSYEMEEDK(Biotin)
The assay can be described thus: polypeptide dot matrix ELISA.

In the next assay the target is T16, pep16 (cysteine pairing not given here).
T16 peptide: CVRACGADSYEMEEDGK(Biotin)
The assay can be described thus: polypeptide dot matrix ELISA.

The next assay concerns the target T17, pep18.
T17 peptide: RACGADSYEMEEDGVRK(Biotin)
The assay can be described thus: polypeptide dot matrix ELISA.

The next assay has as its target T18, pep20 (cysteine pairing not given here).
T18 peptide: CGADSYEMEEDGVRKCK(Biotin)
The assay can be described thus: polypeptide dot matrix ELISA.

Another assay has as its target T19, pep21.
T19 peptide: GADSYEMEEDGVRKCKK(Biotin)
Put plainly: polypeptide dot matrix ELISA.

For assay [1], the target named is T20, human EGFRvIII protein on the cell surface (human, UniProt P00533 25-1210).
T20 construct: whole, on cells; the cell line is named under assay; also called hEGFRvIII; U87MG-hEGFRvIII
Put plainly: FACS on U87MG-EGFRvIII cells. The method, boiled down: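 U87MG-EGFRvIII, A431 and primary human hepatocytes (2×10⁶ cells/mL, goat-serum blocked) were incubated with antibody on ice for 2 h, then with an Alexa 488 secondary (1:1000) for 1 h and fixed in 4% paraformaldehyde. Mean fluorescence intensity was read by flow cytometry, and EC50 was derived by curve fitting.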

For assay [2], the target named is T20, human EGFRvIII protein on the cell …. Put plainly: FACS on U87MG-hEGFRvIII cells.

As a reminder, the EC50 is the concentration at which the effect is half-maximal. A low value points to higher potency in that assay.

B1: Murine anti-75G7 (antibody, V domains shown)
VH: EVQLQQSGPELVKPGASVKIPCKASGYTFTDYNMDWVKQSHGKSLEWIGDINPNNGDTIYNQKFKGKATLTVDKSSSTAYMELRSLTSEDTAVYYCARGDYDGYYPVYYAMDYWGQGTSVTVSS
VL: ENVLTQSPAIMSASPGEKVTMTCRASSSVSSSYLHWYQQKSGASPKLWIFSTSNLAAGVPARFSGSGSGTSYSLTVSSVEAEDAATYYCQQYSGYPLTFGAGTKLELK
notes: murine hybridoma antibody; also called 75G7C6
With B1, the binding result in the assay with pep25, with pep26, in the assay with pep27, in the assay with pep28, in the assay with pep33 and with pep34 was “no binding” throughout. The binding result with pep35, with pep01, with pep02, with pep05, with pep08 and with pep09 was “no binding” in each case. In addition, the binding result with pep10, with pep13, with pep15, in the assay with pep16, with pep18 and with pep20 was “no binding” throughout. For the same molecule, in the assay with pep21, the binding result is reported as “no binding”.

B2: Chimeric antibody 75G7 (antibody, human IgG1, V domains shown)
VH: EVQLQQSGPELVKPGASVKIPCKASGYTFTDYNMDWVKQSHGKSLEWIGDINPNNGDTIYNQKFKGKATLTVDKSSSTAYMELRSLTSEDTAVYYCARGDYDGYYPVYYAMDYWGQGTSVTVSS
VL: ENVLTQSPAIMSASPGEKVTMTCRASSSVSSSYLHWYQQKSGASPKLWIFSTSNLAAGVPARFSGSGSGTSYSLTVSSVEAEDAATYYCQQYSGYPLTFGAGTKLELK
notes: also called c75G7C6; chimeric antibody c75G7C6
Regarding B2, in [1], it took 5.75 nM to reach a half-maximal effect (EC50) and the “Maximum mean fluorescence intensity” value worked out at 18100 MFI. The same molecule showed an EC50 in assay [2] of 6.1 nM.
